Test results: PMC4797284

Columns and labels:
[1] = target: RepDE, chimera of the 21 kDa fragment of RepD fused to the 14 kDa fragment of RepE (residues 35-314) (Staphylococcus aureus) (UniProt P03065); experiment: crystal structure
[2] = target: RepDN, chimera of the 21 kDa fragment of RepD fused to the 14 kDa fragment of RepN (residues 35-314) (Staphylococcus aureus) (UniProt P03065); experiment: crystal structure
[3] = target: RepSTK1, core domain of the replication initiator protein of cryptic plasmid pSTK1 from Geobacillus stearothermophilus (residues 1-269) (Geobacillus stearothermophilus); experiment: crystal structure; RepSTK1 crystals, space group P2(1)2(1)2(1), four molecules per asymmetric unit; protein dialysed against 50 mM Tris-HCl pH 7.5, 700 mM KCl; grown at 294 K as described in ref. 27; data at 100 K

“RepDE, chimera of the 21 kDa fragment of RepD fused to the 14 kDa fragment of RepE (residues 35-314) (from UniProt P03065;P12053)” was tested, and the stoichiometry N [1] was 2.
Substance “RepDN, chimera of the 21 kDa fragment of RepD fused to the 14 kDa fragment of RepN (residues 35-314) (from UniProt P03065;P19529)” has a stoichiometry N [2] of 2.
“RepSTK1, core domain of the replication initiator protein of cryptic plasmid pSTK1 from Geobacillus stearothermophilus (residues 1-269) (domain or fragment)” was tested, and the stoichiometry N [3] was 2.
